These results are taken from the MegaScale stability set (Tsuboyama et al. 2023).

B1: HEEH_KT_rd6_3546 (parent)
chain: SEEDKEREHWERLNRDFELRVLDTTFIAHHAEEVIKLLRWLEK

The variants in this data set derive from B1. The data set can be described thus: folding stability dG (cDNA display proteolysis); higher = more stable. The conditions noted are these: PBS, room temperature.
Take SEEDKEREHWERLNVDFELRVLDTTFIAHHAEEVIKLLRWLEK [R15V]: the “folding stability dG” value worked out at 2.08 kcal/mol. As to SEEDKEREHWERLNPDFELRVLDTTFIAHHAEEVIKLLRWLEK [R15P], the “folding stability dG” value was determined as 1.11 kcal/mol.

Consider SEEDKEREHWERLNWDFELRVLDTTFIAHHAEEVIKLLRWLEK [R15W], for which the “folding stability dG” value came out at 2.45 kcal/mol. Regarding SEEDKEREHWERLNQDFELRVLDTTFIAHHAEEVIKLLRWLEK [R15Q], the “folding stability dG” value was determined as 1.08 kcal/mol. Regarding SEEDKEREHWERLNNDFELRVLDTTFIAHHAEEVIKLLRWLEK [R15N], the “folding stability dG” value stood at 1.26 kcal/mol. As to SEEDKEREHWERLNTDFELRVLDTTFIAHHAEEVIKLLRWLEK [R15T], the “folding stability dG” value stood at 1.4 kcal/mol.

For the variant SEEDKEREHWERLNSDFELRVLDTTFIAHHAEEVIKLLRWLEK [R15S], the “folding stability dG” value came to 1.25 kcal/mol.

Regarding SEEDKEREHWERLNYDFELRVLDTTFIAHHAEEVIKLLRWLEK [R15Y], the “folding stability dG” value was found to be 1.84 kcal/mol.

On to SEEDKEREHWERLNRKFELRVLDTTFIAHHAEEVIKLLRWLEK [D16K], for which the “folding stability dG” value is 1.38 kcal/mol.

Turning to SEEDKEREHWERLNRRFELRVLDTTFIAHHAEEVIKLLRWLEK [D16R], the “folding stability dG” value turned out to be 1.76 kcal/mol. Take SEEDKEREHWERLNRAFELRVLDTTFIAHHAEEVIKLLRWLEK [D16A]: the “folding stability dG” value came to 1.81 kcal/mol. Turning to SEEDKEREHWERLNRFFELRVLDTTFIAHHAEEVIKLLRWLEK [D16F], the “folding stability dG” value turned out to be 1.96 kcal/mol.

Take SEEDKEREHWERLNRHFELRVLDTTFIAHHAEEVIKLLRWLEK [D16H]: the “folding stability dG” value came to 1.93 kcal/mol.

As for SEEDKEREHWERLNRQFELRVLDTTFIAHHAEEVIKLLRWLEK [D16Q], the “folding stability dG” value amounted to 1.6 kcal/mol. For SEEDKEREHWERLNRLFELRVLDTTFIAHHAEEVIKLLRWLEK [D16L], the “folding stability dG” value is 2.02 kcal/mol. Next, SEEDKEREHWERLNRNFELRVLDTTFIAHHAEEVIKLLRWLEK [D16N]: 1.59 kcal/mol; SEEDKEREHWERLNRIFELRVLDTTFIAHHAEEVIKLLRWLEK [D16I]: 1.98 kcal/mol; SEEDKEREHWERLNRPFELRVLDTTFIAHHAEEVIKLLRWLEK [D16P]: 1.94 kcal/mol. For SEEDKEREHWERLNRSFELRVLDTTFIAHHAEEVIKLLRWLEK [D16S], the “folding stability dG” value is 1.57 kcal/mol.

As for SEEDKEREHWERLNRGFELRVLDTTFIAHHAEEVIKLLRWLEK [D16G], the “folding stability dG” value is 1.47 kcal/mol. For the variant SEEDKEREHWERLNREFELRVLDTTFIAHHAEEVIKLLRWLEK [D16E], the “folding stability dG” value worked out at 1.43 kcal/mol.

In the case of SEEDKEREHWERLNRTFELRVLDTTFIAHHAEEVIKLLRWLEK [D16T], the “folding stability dG” value was found to be 2.31 kcal/mol.

For SEEDKEREHWERLNRMFELRVLDTTFIAHHAEEVIKLLRWLEK [D16M], the “folding stability dG” value stood at 1.73 kcal/mol. For the variant SEEDKEREHWERLNRVFELRVLDTTFIAHHAEEVIKLLRWLEK [D16V], the “folding stability dG” value stood at 2.04 kcal/mol. With SEEDKEREHWERLNRWFELRVLDTTFIAHHAEEVIKLLRWLEK [D16W], the “folding stability dG” value is 2.27 kcal/mol. As to SEEDKEREHWERLNRYFELRVLDTTFIAHHAEEVIKLLRWLEK [D16Y], the “folding stability dG” value is 2.13 kcal/mol. Consider SEEDKEREHWERLNRDFMLRVLDTTFIAHHAEEVIKLLRWLEK [E18M], for which the “folding stability dG” value was determined as 2.15 kcal/mol. In the case of SEEDKEREHWERLNRDFFLRVLDTTFIAHHAEEVIKLLRWLEK [E18F], the “folding stability dG” value is 2.66 kcal/mol. The same measure for SEEDKEREHWERLNRDFSLRVLDTTFIAHHAEEVIKLLRWLEK [E18S]: 1.83 kcal/mol. Next, SEEDKEREHWERLNRDFGLRVLDTTFIAHHAEEVIKLLRWLEK [E18G]: 1.36 kcal/mol; SEEDKEREHWERLNRDFHLRVLDTTFIAHHAEEVIKLLRWLEK [E18H]: 1.79 kcal/mol. The same measure for SEEDKEREHWERLNRDFKLRVLDTTFIAHHAEEVIKLLRWLEK [E18K]: 1.62 kcal/mol; for SEEDKEREHWERLNRDFNLRVLDTTFIAHHAEEVIKLLRWLEK [E18N]: 1.5 kcal/mol. Regarding SEEDKEREHWERLNRDFILRVLDTTFIAHHAEEVIKLLRWLEK [E18I], the “folding stability dG” value stood at 2.34 kcal/mol. Next, SEEDKEREHWERLNRDFLLRVLDTTFIAHHAEEVIKLLRWLEK [E18L]: 2.33 kcal/mol; SEEDKEREHWERLNRDFDLRVLDTTFIAHHAEEVIKLLRWLEK [E18D]: 1.42 kcal/mol; SEEDKEREHWERLNRDFQLRVLDTTFIAHHAEEVIKLLRWLEK [E18Q]: 1.72 kcal/mol. As to SEEDKEREHWERLNRDFTLRVLDTTFIAHHAEEVIKLLRWLEK [E18T], the “folding stability dG” value worked out at 2.19 kcal/mol. Consider SEEDKEREHWERLNRDFPLRVLDTTFIAHHAEEVIKLLRWLEK [E18P], for which the “folding stability dG” value was determined as 1.52 kcal/mol. SEEDKEREHWERLNRDFALRVLDTTFIAHHAEEVIKLLRWLEK [E18A]: the “folding stability dG” value was found to be 1.79 kcal/mol. As for SEEDKEREHWERLNRDFRLRVLDTTFIAHHAEEVIKLLRWLEK [E18R], the “folding stability dG” value is 1.87 kcal/mol. Take SEEDKEREHWERLNRDPELRVLDTTFIAHHAEEVIKLLRWLEK [F17P]: the “folding stability dG” value was 0.774 kcal/mol.

Take SEEDKEREHWERLNRDHELRVLDTTFIAHHAEEVIKLLRWLEK [F17H]: the “folding stability dG” value is 0.86 kcal/mol. In the case of SEEDKEREHWERLNRDAELRVLDTTFIAHHAEEVIKLLRWLEK [F17A], the “folding stability dG” value was determined as 0.719 kcal/mol. On to SEEDKEREHWERLNRDQELRVLDTTFIAHHAEEVIKLLRWLEK [F17Q], for which the “folding stability dG” value worked out at 0.444 kcal/mol. Take SEEDKEREHWERLNRDMELRVLDTTFIAHHAEEVIKLLRWLEK [F17M]: the “folding stability dG” value worked out at 1.01 kcal/mol.

In the case of SEEDKEREHWERLNRDVELRVLDTTFIAHHAEEVIKLLRWLEK [F17V], the “folding stability dG” value was found to be 0.83 kcal/mol.

Turning to SEEDKEREHWERLNRDEELRVLDTTFIAHHAEEVIKLLRWLEK [F17E], the “folding stability dG” value is 0.738 kcal/mol. With SEEDKEREHWERLNRDLELRVLDTTFIAHHAEEVIKLLRWLEK [F17L], the “folding stability dG” value amounted to 1.14 kcal/mol. As for SEEDKEREHWERLNRDKELRVLDTTFIAHHAEEVIKLLRWLEK [F17K], the “folding stability dG” value was determined as 0.798 kcal/mol. For SEEDKEREHWERLNRDIELRVLDTTFIAHHAEEVIKLLRWLEK [F17I], the “folding stability dG” value amounted to 1.1 kcal/mol. Next, SEEDKEREHWERLNRDTELRVLDTTFIAHHAEEVIKLLRWLEK [F17T]: 0.782 kcal/mol; SEEDKEREHWERLNRDRELRVLDTTFIAHHAEEVIKLLRWLEK [F17R]: 0.912 kcal/mol; SEEDKEREHWERLNRDSELRVLDTTFIAHHAEEVIKLLRWLEK [F17S]: 0.873 kcal/mol. In the case of SEEDKEREHWERLNRDDELRVLDTTFIAHHAEEVIKLLRWLEK [F17D], the “folding stability dG” value came out at 0.606 kcal/mol.

On to SEEDKEREHWERLNRDWELRVLDTTFIAHHAEEVIKLLRWLEK [F17W], for which the “folding stability dG” value was found to be 1.55 kcal/mol. Take SEEDKEREHWERLNRDNELRVLDTTFIAHHAEEVIKLLRWLEK [F17N]: the “folding stability dG” value worked out at 0.718 kcal/mol. Regarding SEEDKEREHWERLNRDGELRVLDTTFIAHHAEEVIKLLRWLEK [F17G], the “folding stability dG” value is 0.579 kcal/mol. In the case of SEEDKEREHWERLNRDYELRVLDTTFIAHHAEEVIKLLRWLEK [F17Y], the “folding stability dG” value amounted to 1.31 kcal/mol.
